For the data set, the target named is Gk-S15 (ribosomal protein S15) (Geobacillus kaustophilus) (UniProt Q5L0I3). The data set can be described thus: filter binding. The following applies: SELEX Binding Buffer A: 50 mM Tris/acetate pH 7.5, 20 mM Mg-acetate, 270 mM KCl, 5 mM DTT, 0.02% BSA, 25 C, 30 min; filter binding (nitrocellulose/nylon) as ….

In the case of Gk-mRNA, the Kd turned out to be 0.7 nM. In other words, the sub-nanomolar range.

Usually Kd stands for a measure of binding affinity in units of concentration. Lower therefore signals tighter binding.

For the origin of these results see paper PMC5100602.
